Experimental data published in a protein production outcome set (Wang et al. 2014).

Test: label from the status in PepcDB records

Sequence	protein production
MNLEKHASPDSVIVIDDLLPQHMDYASRQRNTTIWTGDVYRLVPILRHYRPDLDIRVYDVDMKGFGLVTRLDPSSDVLAGNYGAIEADILAGKWSFPTAAAIRDHMQPRATDLLANDLGIIAARRTAKASKQSDRRAAPALPQRRPRLSVIICAYDMAREAPRTILSATAPYQKGLKEDEYEVIVVDNGSSTPLTYDNLPPNAQIVRAPDPRQSPVFALNWAAREIAKGEILLFAIDGARIFSERLIDETVKAHDRMEDAFVFSLSWHIGPKVQMQSVPEGYGAEIEDGLIRAVRWPDESDGLFGISVLAGSSSNGFFGDITESNSFSISRTLFDRHGGFDERFTSPGGGLANLEIFRRYVTRPDARNVCLLSEGTFHQVHDSVATSGKNRWEAFASEYEAIFGGPYLRPSYHCFYQGKPRAGMVPFILQSLQG	failed
MPLIPAVPGLADRRMYVFLLLLTLGSGMSFQGWNTLYTNFAVHGAGLSGAENGLVQSIREVPGLLTFGVIPLLLLLREHRLAALAVLVTGVGVMTAGLLPTLWGVVATTLVMSFGFHYFEAVNQSLILQYFDVRTAPLVMGRLRGLAAGGNLVMGALVYVLADLFAFSTLFCIMGAFATVAGAWALTRDPSDPARPAQRRSMVLRRRYWLFYLLTILAGARRQIFTVFSVFLLVEHFGYGVREVALLFIVNNAVNWFLNPLIGRAVNRFGEQHLLTVEYSVLVLVFLGYTVTDSPLVAAFLYVVDHIFFNFAIAIRTFFQKIADPADIAPSMAMSVAINHIAAVVMPVCGGMLWMLDYRIPFYVGAGLAVASLLATQRIGAELRLQGVKPC	failed
MKLKTKTMEWSGNSLKLLDQRKLPFIEEYVECKTHEEVAHAIKEMIVRGAPAIGVAAAFGYVLGLRDYKTGSLTDWMKQVKETLARTRPTAVNLFWALNRMEKVFFENADRENLFEILENEALKMAYEDIEVNKAIGKNGAQLIKDGSTILTHCNAGALATVDYGTALGVIRAAVESGKRIRVFADETRPYLQGARLTAWELMKDGIEVYVITDNMAGWLMKRGLIDAVVVGADRIALNGDTANKIGTYSLAVLAKRNNIPFYVAAPVSTIDPTIRSGEEIPIEERRPEEVTHCGGNRIAPEGVKVLNPAFDVTENTLITAIITEKGVIRPPFEENIKKILEV	not failed
MKAVFAKLGSDFFSTIVFVVLYFSTGNVALATIVAVLGAVGQFIYAKIKGQRLDVMAYASVALVVVLGGATLLTNDPRFVLIKPSVGHIAVGLLMLRRDWMLRYVPPIVAETIPDYVRIAGYAWAALMLLLGTGVIAAAMTGDIKVWTFYVMVIAPAFKVAAFAGQYLVFRIAIRSRRRAAVATAEPAASTPVTAEP	failed
MLRVVEVCWRESHMKVLAINSSPRMDKGNTALILNPFLEGMKEAGAEVELFYTKKLKISPCTGEFNCWLKTPGKCYQNDDMNILYPRIDAADVIVFATPVYVDGVTGQMKNFIDRMLPRVEPFVELRDGHCRHPVRGGPKALKFVLVSNCGFWEMDNFDSLLVFMKAFCKNASTEFAGALLRPHGEALSSMLEMGAPIDDVFEAAREVGRQLVKEGKMSQETLDIVSRELLPKEMYIQIANQTFRQCLESLDRLEHHHHHH	failed
MAGGAVSKGNVIVGLFRKRTSLLITSILLGLIGLPSLGVLDIGNLARAEKAATNAPSPTTPDIKPSELKPAYPASAPPPRVDPLPDERDMQERVVEIDYRVSNLLGDFAGNLWVGSWRGLSRIDPKTGKILARVSLPNVAIGALAQDKVGRLWVGTYEGLKRVEPRTNEISAQNLFLPSKRVLSLLTDKRGYLWVGTDNGLALVSPDQGLIMTTVKNLPGVSGNTLTLDADGQLWTGTLDGVVRINTASALIMKRINDLPGTTVQALAISPEGLIWAGMPNNLLVINPKTGVVLRSVTRLRGRNVTAVRFAKDGSVWVGTHNGLLRLNPNTGAVLDEVAGLPSSRVLSLMPDVANKLWIGTSEGLAWLMPKMDKAKPHLAFSRLVK	failed
MDLGYLKSKESGFIAGMILCTAFMGSSFPSGKYLISEEAMPAFYAGGWRFLLAGGLILAFCAAKDGLGAILPASGGSVIKGALFVLVVGCLQTAGTMGFLNLALTTLSASMASLLLFTNPLWVAILAHFALGETLSWHKVVALVCGILGVSLCLGGGADHGLGGIVIALAGSLCWALCTLISKKHKFDKSVFVFTGWQLTLGALVMLAISKLSGEAYDIDRITGWGIACFIWLVGPASIGSFGLWFTALSRRGATVTSSYLFLVPLFSAVFSMMVLGEAVSPHSLIGGAIIIVALWLINLPQTVSAVWRERLGL	failed
MTEKHLIWDLPLRIFHWGFAATILAAWYTAEQGADLVEIHMQLGFVALALIAFRILWGLIGPKHARFSQFVPSPKSLLSYLRSPNTAKSTAGHNPLGALMVILMILLISAQAISGLFINDDVFSSGPYYGRISNELEKVMKFLHHNTFDFMIAAIVLHIAAITFYWRVKKENLVLPMITGKKTTAQVKSSDAIPHSKIILGCIVAVCCVIFVYWLVVVNAPVIEEFYY	failed
MSLALYLGNKRMNDMYYTIGQVAKMQHLTISQIRYYDKQGLFPFLQRNEKGDRIFNEEALKYLEMILCLKNTGMPIQKIKQFIDWSMEGDSTILHRLKLMKQQEANVLQLIQDTEKNLKKIQQKIAKYEDEISSANATTKEGHHHHHH	not failed
MKESNHLMDTPYSYLIRSIGMKLKTSADARLAELGLNSQQGRMIGYIYENQESGIIQKDLAQFFGRRGASITSMLQGLEKKGYIERRIPENNARQKNIYVLPKGAALVEEFNNIFLEVEESITKGLTKDEQKQLMSILIKVNRSM	not failed
SSQWHHPRSGWGRRRDFSGRSSAKKKGGNHIPERWKDYLPVGQRMPGTRFIAFKVPLQKSFEKKLAPEECFSPLDLFNKIREQNEELGLIIDLTYTQRYYKPEDLPETVPYLKIFTVGHQVPDDETIFKFKHAVNGFLKENKDNDKLIGVHCTHGLNRTGYLICIYLIDVEGVRPDDAIELFNRCRGHCLERQNYIEDLQNGPIRKNWNSSVPRSSDFEDSAHLMQPVHNKPVKQGPRYNLHQIQGHSAPRHFHTQTQSLQQSVRKFSENPHVYQRHHLPPPGPPGEDYSHRRYSWNVKPNASRAAQDRRRWYPYNYSRLSYPACWEWTQ	not failed
NVAYPLGEGLLSFAESLESQKIHFTTEVITSRIEPANRYVAEKLRITPGQDILYLERLRSIGDEKAMLIENRINIELCPGIVEIDFNQHNLFPTIESLSKRKIRYSESRYAARLIGNERGHFLDISEDAPVLHLEQLVFFSRELPVEFGNVWLKGNKYYLGTVLQRRELS	not failed
MEKKYIMFIIAMAISFLTTPIVRKFAKHIKAIDIPKDKRRVHKKPIPKIGGLAIYLAFVLVLVLKKGHLEKAEMGIIFGGGIIVLGGFIDDLKCLRPLYKVLFQLLGAFVLIGFGLRISMVTNPLSNSFSYIHINNFIGIAITIIWIIGVTNAFNLIDGLDGLSAGVGFISSVTIAIVAFLNGPTRSEAEILSVILAGSILGFLPYNFNPASIFMGDTGAQFLGFALAAISIQGAIKSASAVVLAVPILVLGLPIYDTIFAIIRRKINGKPITQADRGHLHHRLLDMGLSQKQAVLIMYFISAIMGLVAVIAMQLTNTKAYVIFAGAVICIVGLAWKFGLFKHK	failed
MGHHHHHHSHTGKTTFSATIHALEGGVVADCDVDAPNLHILLKPQILKAEDFIASKKARIMPEKCSSCGLCYDLCRFGAVVAEDGYYVDEKKCEGCAFCFNVCPERAIEMENVKTGDLYVSKTEWGYFVHARLKPGEENTGRLVTEVKNRAKEIAEESNAEFLIVDSAPGVGCPVMASLTGVDAAIIVTEPTVSGLSDMLRILELCEHFRIRPFVVVNKFDLNVNIASEIESYCSENGVEFAGRVPFDKAIPEQIANLNFPFSGKAADKMVEIWKKLRE	not failed
MRNSCYTSSYRQPVSLVVEWVLIGGLAMQDKLHEIRVFENFQEELFETGHVIVTTEVVEKSLNYFGNAHGGYLFTLCDQVAGLVALSTGDYAVTLQSNINYLKAGHLSDQLKIEGLCVHNGKTTKLVEVLITNQEEKILTRATFTMYVTGSISE	failed
MPNELSRSLSPYLLMHANDPVEWRMWSKETLRIATEENRLIFLSIGYSSCHWCHVMHEESFVDPDVAEILNNNYIPVKVDREERPDLDSYFMKVSQVINGNGGWPLNIILLPDARPVFAMTYVPKEDRNGMTGLKTILIQLSQMYLKDPDQFKDQAKAVSDAMEERESV	not failed
MTLFDGTPFEWAPGRIEVRARRECGASRKSLVVAAGVSYLARMIFSFDAFVTNALFDRSGRAMFALGDGTVRLQTDEGFVTVEAHGGPLGGAVLAAAVHPSGAGIVTGGDDGRVVWSRIEGGEVVATLIAEVKNKWIEHVAASAASGLIAFTVGKEVHVRDAADPAFARTFPHEKTVSGLAFEPKGRRLASATYGGAYLWYARIADQKPTVLKWAGSHIAVEFSPDGKFLISSMQENQLHGWRLSDGKDMRMGGYPSKIKSVAFFDKGNLLATAGASGAVIWPFAGANGPMGKEAAEIGFSRDSMVVRVAGIDPQPVCIAGQDSGKIWAAHMRNGRIETLKAEKGAPISALSVSADGKRLAWGDESGEAGVLEIPDLSGPRQFVG	failed
MERLAPAKVNLGLSVRFRREDGYHELHTLFAPFSLADRLVVEPVSSGLHFQGPYGRENLAYRAASLYLEAAGQPGGVRILLEKRIPEGAGLGGGSSDAAQVLLALQALYPAEVDLFALARTLGADVPFFLLGRGAEARGVGERLKPLALPPVPAVVFFPGLRVPTPLVYRAVRPEDFGPDLPVEAILEALARGEEPPYWNSLEGPAFRLFPELKEVRGRMRALGLRGVLMSGSGSAFFGLAEGPDHARRAAEALRAWGRAWAGTLGGGDAGSGPA	not failed
MEVMRGVRVIEGMNGGRFPYCNVVVVGDVVIDAGAGLEVMRKVNASLLVLSHLHPDHSSGAWLFKDVLAPAEGRITLDTLARRFVAPDLVESWKRFISAATGLREFECERYEEGVVVKEPEIVAVPVKGHTMDHHVFLIEQKVLFGADVDLTSFGPFYGNPEADPYLFEREMDKLLDIDFEIFVSAHSKPLEHHHHHH	failed
MATSSTQLLLSSSSLFHSQITKKPFLLPATKIGVWRPKKSLSLSCRPSASVSAASSAVDVNESVTSEKPTKTLPFRIGHGFDLHRLEPGYPLIIGGIVIPHDRGCEAHSDGDVLLHCVVDAILGALGLPDIGQIFPDSDPKWKGAASSVFIKEAVRFRRLP	failed
MMTLSDLPSDLAEEVLSKIPVTSLRGVRATCKKWNTLSKDRSFTRKHLAQAKAAAAREFMVVMVMDFQVYLMGINLHKDVDATINGQGKLISLDDSNQVDISYVYHCDSLVLCIPKDCARLVVWNPYWGQTLWFKPTSLRHFPHWYMYAIGYQMRRGNRDAKTSRWLLTCRPTTKTITKNTIDHL	failed
